Source: paper PMC8897147 (Acta Pharmaceutica Sinica. B, 2021)

T1: GLP-2R (Homo sapiens, UniProt O95838)
T1 sequence (O95838 1-553): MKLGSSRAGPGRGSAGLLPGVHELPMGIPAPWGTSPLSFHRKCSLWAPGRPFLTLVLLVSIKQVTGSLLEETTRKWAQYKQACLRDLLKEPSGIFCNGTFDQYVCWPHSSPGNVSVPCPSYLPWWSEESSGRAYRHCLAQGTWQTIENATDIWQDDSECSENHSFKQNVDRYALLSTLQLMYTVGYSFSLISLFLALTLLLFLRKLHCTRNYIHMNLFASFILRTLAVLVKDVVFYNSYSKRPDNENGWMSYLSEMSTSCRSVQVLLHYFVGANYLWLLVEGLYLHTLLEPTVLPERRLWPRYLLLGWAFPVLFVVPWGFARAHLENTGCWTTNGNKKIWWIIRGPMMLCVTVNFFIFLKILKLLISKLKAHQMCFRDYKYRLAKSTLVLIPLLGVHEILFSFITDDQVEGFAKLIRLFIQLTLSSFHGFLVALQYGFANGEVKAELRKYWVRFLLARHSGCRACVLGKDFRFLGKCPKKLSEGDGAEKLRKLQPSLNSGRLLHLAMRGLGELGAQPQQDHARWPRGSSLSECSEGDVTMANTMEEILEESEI

T2: GIPR (Homo sapiens, UniProt P48546)
T2 sequence (P48546 22-466): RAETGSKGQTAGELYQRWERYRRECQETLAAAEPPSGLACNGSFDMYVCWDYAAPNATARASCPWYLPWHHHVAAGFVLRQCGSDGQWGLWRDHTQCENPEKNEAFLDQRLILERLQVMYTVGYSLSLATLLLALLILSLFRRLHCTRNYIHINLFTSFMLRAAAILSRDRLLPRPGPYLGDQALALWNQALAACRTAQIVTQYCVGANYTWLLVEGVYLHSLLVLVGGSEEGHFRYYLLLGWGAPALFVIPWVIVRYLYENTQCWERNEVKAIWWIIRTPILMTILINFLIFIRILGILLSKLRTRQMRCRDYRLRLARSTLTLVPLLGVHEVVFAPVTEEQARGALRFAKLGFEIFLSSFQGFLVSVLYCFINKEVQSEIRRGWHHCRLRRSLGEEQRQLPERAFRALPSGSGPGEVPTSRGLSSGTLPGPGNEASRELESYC

T3: GHRHR (Homo sapiens, UniProt Q02643)
T3 sequence (Q02643 23-423): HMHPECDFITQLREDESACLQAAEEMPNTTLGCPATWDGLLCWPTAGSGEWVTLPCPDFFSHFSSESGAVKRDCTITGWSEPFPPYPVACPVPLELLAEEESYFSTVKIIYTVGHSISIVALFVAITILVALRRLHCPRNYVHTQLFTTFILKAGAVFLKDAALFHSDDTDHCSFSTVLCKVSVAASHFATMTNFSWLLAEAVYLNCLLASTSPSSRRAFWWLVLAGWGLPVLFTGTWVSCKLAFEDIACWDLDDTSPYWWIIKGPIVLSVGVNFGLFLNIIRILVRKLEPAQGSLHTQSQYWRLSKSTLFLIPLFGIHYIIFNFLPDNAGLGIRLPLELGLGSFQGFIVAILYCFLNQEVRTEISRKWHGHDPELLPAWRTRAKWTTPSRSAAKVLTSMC

T4: SV1 (Homo sapiens, UniProt Q02643)
T4 sequence (Q02643 90-423 limits assumed): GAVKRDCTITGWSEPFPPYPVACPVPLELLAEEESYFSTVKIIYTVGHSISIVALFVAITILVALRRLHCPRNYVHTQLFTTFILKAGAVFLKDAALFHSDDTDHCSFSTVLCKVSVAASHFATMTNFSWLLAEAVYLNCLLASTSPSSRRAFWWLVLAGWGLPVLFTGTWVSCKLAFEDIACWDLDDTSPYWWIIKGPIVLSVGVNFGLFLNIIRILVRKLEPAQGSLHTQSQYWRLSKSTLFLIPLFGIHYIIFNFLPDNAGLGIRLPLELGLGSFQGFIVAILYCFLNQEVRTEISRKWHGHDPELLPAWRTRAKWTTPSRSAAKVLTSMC


What was measured:
GLP-2R [1] = target: T1, GLP-2R; test: BRET GPCR–RAMP interaction; format: binding; conditions: COS-7; receptor-Rluc8:RAMP-Ypet 1:0.25 to 1:16; pH 7.4, 37 °C; mean ± SEM n≥3
GIPR = target: T2, GIPR; test: BRET GPCR–RAMP interaction; format: binding; conditions: COS-7; receptor-Rluc8:RAMP-Ypet 1:0.25 to 1:16; pH 7.4, 37 °C; mean ± SEM n≥3
COS-7 cells = test: RAMP cell surface expression; format: cell-based
GLP-1R = GLP-1R (Homo sapiens, UniProt P43220); test: BRET GPCR–RAMP interaction; format: binding; conditions: COS-7; receptor-Rluc8:RAMP-Ypet 1:0.25 to 1:16; pH 7.4, 37 °C; mean ± SEM n≥3
Chain of GLP-1R (P43220 24-463): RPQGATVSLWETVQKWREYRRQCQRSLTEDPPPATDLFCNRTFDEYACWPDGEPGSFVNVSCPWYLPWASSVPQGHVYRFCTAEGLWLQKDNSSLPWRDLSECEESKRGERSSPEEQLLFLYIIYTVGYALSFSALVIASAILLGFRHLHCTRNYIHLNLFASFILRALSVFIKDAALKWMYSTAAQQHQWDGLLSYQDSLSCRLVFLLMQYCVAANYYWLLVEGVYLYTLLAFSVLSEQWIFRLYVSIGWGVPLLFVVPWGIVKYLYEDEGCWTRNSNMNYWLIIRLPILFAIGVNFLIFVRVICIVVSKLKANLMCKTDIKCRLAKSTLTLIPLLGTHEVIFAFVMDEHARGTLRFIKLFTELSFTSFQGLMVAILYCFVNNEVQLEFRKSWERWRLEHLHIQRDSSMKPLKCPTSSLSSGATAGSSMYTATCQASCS

GHRHR [2] = target: T3, GHRHR; test: BRET GPCR–RAMP interaction; format: binding; conditions: COS-7; receptor-Rluc8:RAMP-Ypet 1:0.25 to 1:16; pH 7.4, 37 °C; mean ± SEM n≥3
SCTR = test: BRET GPCR–RAMP interaction; format: binding; conditions: COS-7; receptor-Rluc8:RAMP-Ypet 1:0.25 to 1:16; pH 7.4, 37 °C; mean ± SEM n≥3
GHRHR [3] = target: T3, GHRHR; test: cAMP accumulation; conditions: COS-7; RAMP3
GCGR [4] = target: T5, GCGR (Homo sapiens, UniProt P47871); test: BRET GPCR–RAMP interaction; format: binding; conditions: COS-7; receptor-Rluc8:RAMP-Ypet 1:0.25 to 1:16; pH 7.4, 37 °C; mean ± SEM n≥3
T5 sequence (P47871 26-477, species assumed): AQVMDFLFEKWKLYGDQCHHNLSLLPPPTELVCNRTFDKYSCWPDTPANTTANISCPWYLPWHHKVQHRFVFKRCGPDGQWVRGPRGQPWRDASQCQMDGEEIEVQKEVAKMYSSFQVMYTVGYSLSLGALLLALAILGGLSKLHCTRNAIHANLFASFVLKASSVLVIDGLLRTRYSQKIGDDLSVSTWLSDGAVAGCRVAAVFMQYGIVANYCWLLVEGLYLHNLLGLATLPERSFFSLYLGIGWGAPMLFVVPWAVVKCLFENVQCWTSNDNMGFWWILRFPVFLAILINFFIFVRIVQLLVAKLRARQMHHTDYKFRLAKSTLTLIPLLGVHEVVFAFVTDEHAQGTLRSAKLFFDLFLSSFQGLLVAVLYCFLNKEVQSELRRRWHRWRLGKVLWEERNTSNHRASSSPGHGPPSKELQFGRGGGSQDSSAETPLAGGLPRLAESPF

SV1 [5] = target: T4, SV1; test: cAMP accumulation; conditions: COS-7; RAMP3
CLR = CLR (Homo sapiens, UniProt Q16602); test: BRET GPCR–RAMP interaction; format: binding; conditions: COS-7; receptor-Rluc8:RAMP-Ypet 1:0.25 to 1:16; pH 7.4, 37 °C; mean ± SEM n≥3
Chain of CLR (Q16602 23-461): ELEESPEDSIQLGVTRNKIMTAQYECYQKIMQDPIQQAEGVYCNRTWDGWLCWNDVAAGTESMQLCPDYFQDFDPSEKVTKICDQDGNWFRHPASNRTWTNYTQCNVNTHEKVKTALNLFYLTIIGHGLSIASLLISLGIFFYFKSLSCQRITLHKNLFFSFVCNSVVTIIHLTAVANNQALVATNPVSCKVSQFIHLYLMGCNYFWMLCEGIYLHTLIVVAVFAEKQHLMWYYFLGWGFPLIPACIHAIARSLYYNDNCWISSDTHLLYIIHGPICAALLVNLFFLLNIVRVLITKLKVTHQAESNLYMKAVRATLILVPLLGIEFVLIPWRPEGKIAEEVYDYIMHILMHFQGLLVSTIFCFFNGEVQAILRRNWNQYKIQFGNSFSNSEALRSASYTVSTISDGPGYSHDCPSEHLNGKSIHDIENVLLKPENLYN

SV1 [6] = target: T4, SV1; test: BRET GPCR–RAMP interaction; format: binding; conditions: COS-7; receptor-Rluc8:RAMP-Ypet 1:0.25 to 1:16; pH 7.4, 37 °C; mean ± SEM n≥3
GCGR [7] = target: T5, GCGR; conditions: CHO-K1 ref [38]; cited from earlier work
GLP-2R [8] = target: T1, GLP-2R; test: Gαq activation; format: cell-based; conditions: HEK293A; RAMP2
GCGR [9] = target: T5, GCGR; conditions: CHO-K1 ref [38]; cited from earlier work; remark: listed apart in the source

| Bmax (maximum measured BRET value) (GLP-2R [1]) | Bmax (maximum measured BRET value) (GIPR) | Bmax (maximum measured BRET value) (GLP-1R) | Bmax (maximum measured BRET value) (GHRHR [2]) | effect of RAMP on cAMP response (GHRHR [3]) | Bmax (maximum measured BRET value) (GCGR [4]) | effect of RAMP on cAMP response (SV1 [5]) | Bmax (maximum measured BRET value) (CLR) | Bmax (maximum measured BRET value) (SV1 [6]) | effect of RAMP on potency, Gαq activation (GLP-2R [8]) | Molecule | RAMP cell surface expression (COS-7 cells; co-expression with GCGR, FLAG-RAMP) | RAMP cell surface expression (COS-7 cells; co-expression with SCTR, FLAG-RAMP, effect of receptor on RAMP3) | RAMP cell surface expression (COS-7 cells; co-expression with SV1, FLAG-RAMP) | Bmax (maximum measured BRET value) (SCTR) | β-arrestin recruitment (GCGR [7]) | RAMP cell surface expression (COS-7 cells; co-expression with glucagon receptor family members, FLAG-RAMP) | Gαq signaling (GCGR [9]) |
| --- | --- | --- | --- | --- | --- | --- | --- | --- | --- | --- | --- | --- | --- | --- | --- | --- | --- |
| 0.689 ± 0.128 | 0.729 ± 0.061 | 0.862 ± 0.100 | 0.948 ± 0.139 | no effect | 1.102 ± 0.165 | marked response | 0.511 ± 0.058 | 1.842 ± 0.754 |  | receptor activity-modulating protein 3 (protein, left off: Ypet, C-terminal, kept) RAGGCNETGMLERLPLCGKAFADMMGKVDVWKWCNLSEFIVYYESFTNCTEMEANVVGCYWPNPLAQGFITGIHRQFFSNCTVDRVHLEDPPDEVLIPLIVIPVVLTVAMAGLVVWRSKRTDTLL | negative | negative | negative | 0.995 ± 0.058 |  |  |  |
| 0.567 ± 0.234 | 0.474 ± 0.122 | 0.397 ± 0.092 | 0.393 ± 0.025 |  | 0.578 ± 0.072 |  | 0.468 ± 0.042 | 0.843 ± 0.102 | nominal reduction | receptor activity-modulating protein 2 (protein, left off: Ypet, C-terminal, kept) QPLPTTGTPGSEGGTVKNYETAVQFCWNHYKDQMDPIEKDWCDWAMISRPYSTLRDCLEHFAELFDLGFPNPLAERIIFETHQIHFANCSLVQPTFSDPPEDVLLAMIIAPICLIPFLITLVVWRSKDSEAQA |  |  |  | 0.434 ± 0.051 | abolished β-arrestin recruitment | negligible | attenuated Gαq signaling |
